Measurements: patent US20250346678A1 (AP BIOSCIENCES, published 2025)

T1: human OX40 expressed on cells (human, UniProt P43489 29-277)
T1 construct: whole, on cells; also called OX40 expression HEK293 cells
T1 sequence (looked up): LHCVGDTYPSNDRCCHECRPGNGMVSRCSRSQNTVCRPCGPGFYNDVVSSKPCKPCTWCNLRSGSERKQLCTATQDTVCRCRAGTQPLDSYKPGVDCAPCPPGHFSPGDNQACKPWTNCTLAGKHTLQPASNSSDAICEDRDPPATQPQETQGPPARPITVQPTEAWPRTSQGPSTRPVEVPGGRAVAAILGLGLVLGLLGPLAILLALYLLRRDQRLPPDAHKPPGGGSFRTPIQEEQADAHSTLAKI


How the values were obtained:
human PD-L1 = molecular target: T2, human PD-L1 (human, UniProt Q9NZQ7 19-238, limits assumed); experiment: direct ELISA
T2 construct: also called recombinant PD-L1

[1] = molecular target: T3, human PD-L1 expressed on cells (human, UniProt Q9NZQ7 19-290); experiment: flow cytometry on stable PD-L1 expression 293 cells, IFN-γ stimulated A549 or WiDr
T3 construct: whole, on cells; also called PD-L1 expression HEK293 cells
Source text: The bound antibody fusion proteins were detected with Alexa-488 conjugated goat anti-human IgG (H+L) followed by FACS analysis. Isotype antibody was used as negative control for the test.

[2] = molecular target: T4, human PD-L1 IgG1 Fc chimera (human, UniProt Q9NZQ7 19-238, limits assumed); experiment: phage display selection and direct ELISA screening
T4 construct: Made by APBio; also called PD-L1-Fc; recombinant human PD-L1-Fc
Description: (§1) For the generation of therapeutic antibodies against PD-L1 or OX40, selections with the OmniMab phagemid library were carried out. The phagemid library is generated by AP Biosciences Inc. (APBio Inc.) from a collection of over hundred health donors B cells. Phages for the 1st round of pannings were prepared by Hyperphage (M13K07ΔρIII, Progen, Heidelberg, Germany). Solid phase panning and cell panning against PD-L1 or OX40 were applied for PD-L1 or OX40 specific binder selection and isolation from OmniMab library. […] Bound phages were detected by HRP conjugated anti-M13 antibody (Roche) and TMB substrate was used for signal development. The OD₄₅₀ readings were recorded. The positive binders were isolated and sent for sequencing to confirm the sequence and diversity of heavy chain and light chain.

[3] = molecular target: T1, human OX40 expressed on cells; experiment: phage display selection and cell-based ELISA screening
Description: as §1

T3 sequence (Q9NZQ7 19-290): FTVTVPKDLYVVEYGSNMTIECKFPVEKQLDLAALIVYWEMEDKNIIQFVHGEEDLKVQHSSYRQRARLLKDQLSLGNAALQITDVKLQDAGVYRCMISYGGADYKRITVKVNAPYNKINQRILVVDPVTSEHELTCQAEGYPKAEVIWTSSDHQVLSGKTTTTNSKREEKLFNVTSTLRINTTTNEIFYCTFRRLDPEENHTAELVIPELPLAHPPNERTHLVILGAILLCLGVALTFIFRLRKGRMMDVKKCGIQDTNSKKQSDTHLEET
T2 sequence (Q9NZQ7 19-238 limits assumed): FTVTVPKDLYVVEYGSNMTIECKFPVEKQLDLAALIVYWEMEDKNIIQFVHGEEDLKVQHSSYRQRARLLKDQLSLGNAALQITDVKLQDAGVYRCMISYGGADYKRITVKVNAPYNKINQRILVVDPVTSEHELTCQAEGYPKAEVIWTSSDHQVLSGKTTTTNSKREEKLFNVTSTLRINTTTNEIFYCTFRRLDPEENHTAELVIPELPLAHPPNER
T4 sequence (Q9NZQ7 19-238 limits assumed, change not shown): as the sequence (Q9NZQ7 19-238 limits assumed) above

Binder | binding result [3] | further results
anti-PD-L1 antibody clone 6 (antibody, human IgG4 S228P, lambda, V domains shown, also called PD-L1 clone 6; PD-L1-Clone 6) VH: QVQLVQSGAEVKKPGSSVKVSCKASGGTFRRYSISWVRQAPGQGLEWMGGIIPVFGAAKYAQKFQGRVTITADEFTSTAYMELSSLTSEDTAVYYCALSGDSDAFDIWGQGTMVTVSS VL: not shown |  | binding result (human PD-L1): binds; binding result [1]: binds
OM-PD-L1-6 (Fab, V domains shown, Fab from the phage library) VH: QVQLVQSGAEVKKPGSSVKVSCKASGGTFRRYSISWVRQAPGQGLEWMGGIIPVFGAAKYAQKFQGRVTITADEFTSTAYMELSSLTSEDTAVYYCALSGDSDAFDIWGQGTMVTVSS VL: not shown |  | binding result [2]: binds
OM-OX40-A4 (Fab, V domains shown, Fab from the phage library) VH: QVQLVESGGGLVQPGGSLRLSCAASGFTFSSYEMNWVRQAPGKGLEWVSYISSSGSTIYYADSVKGRFTISRDNAKNSLYLQMNSLRAEDTAVYYCARGGVGDAFDIWGQGTMVTVSS VL: QSALTQPPSASGSPGQSVTISCTGTSSDVGGYNYVSWYQQHPGKAPKLMIYEVSQRPSGVPDRFSGSKSGNTASLTVSGLQAEDEADYYCSSYAGSNNLGVFGGGTKLTVSS | binds | 
OM-OX40-B17 (Fab, V domains shown, Fab from the phage library; variable regions identical to those of OX40 clone B17) VH: EVQLVESGGVVVQPGGSLRLSCAASGFTFDDYTMHWVRQAPGKGLEWVSLISWDGGSTYYADSVKGRFTISRDNSKNSLYLQMNSLRTEDTALYYCASIYDPPPGSRSALDAFDIWGQGTMVTVSS VL: SYVLTQPPSVSVTPGKTARIACGGNNLESKIVSWYQQKPGQAPVLVIFYDTDRPSGISERFSGSNSGNTATLTISRVEAGDEADYYCQVWDSNSDHVIFGGGTKLTVLG | binds | 
OM-OX40-B19 (Fab, V domains shown, Fab from the phage library; variable regions identical to those of OX40 clone B19) VH: EVQLVESGGGLVKPGGSLRLSCAASGFTFSSYSMNWVRQAPGKGLEWVSSISSSSRYIYYADSVKGRFTISRDNAKNSLYLQMNSLRAEDTAVYYCARQNEDVAFGIWGQGTMVTVSS VL: SYVLTQPPSVSVTPGKTARIACGGNNLESKIVSWYQQKPGQAPVLVIFYDTDRPSGISERFSGSNSGNTATLTISRVEAGDEADYYCQVWDSNSDHVIFGGGTKLTVLG | binds | 
